Source: the supplement of paper PMC10126150
± gives the standard deviation of the averaged measurements.

Test system: ATP
Experiment: switch fluorescence ratio, 500 uM ATP over buffer (Cy3 cluster intensity, sum of 5 cycles each) (fold (ratio)); higher = stronger signal-on switching upon ATP binding; sequences stand for … in TCGTCGGCAGCGTCAGATGTGTATAAGAGACAGTTTTTTTTTTTTTTTTTTTTTTTTT…TC
Conditions: aptamer strand: ATP DNA aptamer (quencher-CACCTGGGGGAGTATTGCGGAGGAAGG + anchor), 100 nM annealed; ATP concentration: 500 uM
Outline: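 Switching-strand clusters labelled with Cy3 on a modified Illumina MiSeq flow-cell were annealed to 100 nM quencher-labelled ATP aptamer, imaged in selection buffer, and re-imaged after 15 min with 500 uM ATP at 22 °C. This was done over five cycles with NaOH stripping and re-annealing in between. The fluorescence ratio is summed target-cycle over summed buffer-cycle Cy3 intensity per cluster, averaged per switch-domain sequence, excluding clusters outside 100-1000 RFU.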
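Further: ATP exposure 15 min at 22 °C before imaging.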

Row | Sequence | switch fluorescence ratio
1 | TAGACGGGGG | 1 ± 0.04
2 | GATGATATTG | 0.992 ± 0.012
3 | ATCCGAGCAT | 4.654 ± 0.039
4 | ATTGGTTCCA | 1.03 ± 0.041
5 | GCCGGGCCGG | 0.9666 ± 0.0055
6 | GCAAGGGCTA | 1.04 ± 0.045
7 | TTGGGTGCTT | 1.02 ± 0.041
8 | TCGGAAAAAT | 0.966 ± 0.0099
9 | CTGGATTTCA | 0.99 ± 0.027
10 | CTTGCGCCTG | 1.01 ± 0.048
11 | TATACGAATT | 1.02 ± 0.074
12 | GGATGTTTAG | 1.02 ± 0.021
13 | TGGTGTCAAT | 1 ± 0.017
14 | GGTTATGGCC | 1.01 ± 0.031
15 | TCGTCTTTTG | 0.997 ± 0.015
16 | GGGAGGGTTA | 0.996 ± 0.055
17 | TGAAAATTAG | 0.9688 ± 0.0049
18 | CGTTAGGCGC | 0.985 ± 0.013
19 | AGTTCAACCT | 1.65 ± 0.19
20 | ACGCTGGCGA | 1.03 ± 0.021
21 | AGTCTAAGGG | 0.993 ± 0.013
22 | CGGGTAATGG | 1.03 ± 0.07
23 | ATAGTGAGGT | 0.986 ± 0.038
24 | CGGAAAAAAT | 1.19 ± 0.19
25 | GCTAGGTTTG | 0.998 ± 0.054

Row | Sequence | switch fluorescence ratio
26 | TTCATGTCAT | 1.01 ± 0.081
27 | GTTATATTGA | 0.999 ± 0.026
28 | GCGAGGGATG | 1.002 ± 0.0043
29 | GAGGGGTGTA | 0.9896 ± 0.0085
30 | TCTATTAAGG | 1 ± 0.013
31 | TATGAATGGG | 1.01 ± 0.021
32 | AAATCTGTAG | 0.9849 ± 0.002
33 | TAGAAATTTC | 1.02 ± 0.036
34 | TATAGCCCGT | 1.02 ± 0.016
35 | CGTTGCACCT | 0.952 ± 0.051
36 | AAAATAAGGT | 0.969 ± 0.043
37 | CCAATAGTTC | 1.08 ± 0.022
38 | TGAGAGCGTC | 0.89 ± 0.14
39 | TGATAGTAGT | 1 ± 0.025
40 | GTTGATTAGC | 0.981 ± 0.077
41 | CGTGTGATGC | 1.05 ± 0.015
42 | ATGAAATCAG | 0.9991 ± 0.0044
43 | CAGTTGGTC | 0.995 ± 0.037
44 | TCGGATTGGG | 0.993 ± 0.033
45 | GAAGCGGGGG | 1.05 ± 0.02
46 | ATCGGGTTGG | 0.965 ± 0.018
47 | CATATCTGTT | 1.02 ± 0.024
48 | AATATCGGGA | 0.983 ± 0.038
49 | GAGTATGGGT | 1 ± 0.021
50 | TTACCCGTCA | 1.06 ± 0.044

Row | Sequence | switch fluorescence ratio
51 | TACGGGCCGG | 0.98 ± 0.011
52 | TCAAAGGTGT | 1.22 ± 0.14
53 | TTGGTTGGCT | 1.01 ± 0.018
54 | CCGGAGAGGG | 1.7 ± 0.61
55 | GGATTGTATG | 0.994 ± 0.032
56 | AACGAGGGTC | 1.01 ± 0.049
57 | CAGGTAAGAG | 0.987 ± 0.013
58 | GGAATCTGTA | 0.949 ± 0.022
59 | GTGGCCGGGT | 1.03 ± 0.0047
60 | CTCTATAACT | 1.0133 ± 0.00043
61 | ACGGAGAGGC | 1.14 ± 0.22
62 | ATATTATGAT | 0.985 ± 0.03
63 | GTTGAAACGT | 1.06 ± 0.023
64 | CGGGACACGT | 0.9677 ± 0.0063
65 | TTGGAAAATG | 1.02 ± 0.037
66 | TCATTATTAA | 1.01 ± 0.027
67 | CCTTTTCAGC | 1.12 ± 0.025
68 | AAATTGGGAG | 1.016 ± 0.0026
69 | CAGGATTGGC | 1.07 ± 0.019
70 | TGGTAAAAAA | 0.959 ± 0.016
71 | AAAAGCTTTT | 0.988 ± 0.034
72 | ACAGAAGTCT | 1.03 ± 0.096
73 | AAAGAGTTGG | 0.99 ± 0.047
74 | AACGGTAGTG | 1.09 ± 0.03
75 | ATGTGAGGGG | 0.986 ± 0.029

Row | Sequence | switch fluorescence ratio
76 | TGTGATAGAG | 0.989 ± 0.029
77 | CTCGGGGGTT | 1.06 ± 0.08
78 | CAGGGGGTTT | 1.01 ± 0.044
79 | TTGCTGTTAG | 0.995 ± 0.0074
80 | ATCCCCGGAG | 1.33 ± 0.12
81 | TTACATATGA | 1.04 ± 0.016
82 | CGGCGCGTAG | 1.05 ± 0.031
83 | TTATTATTGG | 0.986 ± 0.013
84 | AAGGATAGAT | 0.985 ± 0.025
85 | GCATTGGTAT | 0.981 ± 0.011
86 | GGCGGGATGC | 1 ± 0.031
87 | CGTGTCCGGT | 1.01 ± 0.043
88 | AAGTCCTTCT | 1.07 ± 0.036
89 | GGGACGATGG | 0.9857 ± 0.0013
90 | TTAAGATGAG | 0.961 ± 0.035
91 | TTCGGGAACA | 1.02 ± 0.038
92 | TGGAATATGG | 1.04 ± 0.021
93 | TCGAAGGCAT | 1.06 ± 0.03
94 | TAGAACAGTT | 0.9982 ± 0.0013
95 | TTTCTTCCCT | 1.13 ± 0.11
96 | AGACGGAACT | 1.08 ± 0.025
97 | ATAATTGGG | 0.978 ± 0.097
98 | ATCACTCGTA | 1.03 ± 0.043
99 | GATATATTCG | 1 ± 0.016
100 | TCATTTGGCA | 0.983 ± 0.01

Row | Sequence | switch fluorescence ratio
101 | GATAGACGAG | 1.03 ± 0.043
102 | AGGTTTGGGT | 0.998 ± 0.026
103 | ATTTTCGGTT | 0.997 ± 0.034
104 | GGGCCGAATG | 1.009 ± 0.0025
105 | AGGCTTTCCT | 1.05 ± 0.04
106 | ACTTATTGAA | 1.11 ± 0.17
107 | CGGGGAGAC | 1.02 ± 0.062
108 | AAGGTCCTCT | 1 ± 0.004
109 | AAATGAAAAA | 0.99 ± 0.091
110 | GGAACATAG | 0.9987 ± 0.0023
111 | AGAGAAAGGG | 1.02 ± 0.035
112 | TGGGTGGGGC | 0.997 ± 0.018
113 | CCTCGATGTA | 1.08 ± 0.027
114 | AAATAGTGCC | 1.036 ± 0.0029
115 | TTTCGAATTC | 1.006 ± 0.0084
116 | TAGGGGATCA | 0.9839 ± 0.0036
117 | TTTCGGTCGT | 1.03 ± 0.074
118 | TGGAATTTAG | 1.013 ± 0.00072
119 | ACATTCGCGC | 1.148 ± 0.0066
120 | AGCCGCCGGG | 1.04 ± 0.013
121 | GAGTGCCTGG | 1.02 ± 0.012
122 | AAGGGTCGAT | 0.968 ± 0.016
123 | AGAAGGGAGG | 0.987 ± 0.011
124 | TATAAAGAGC | 1.08 ± 0.081
125 | TACACGAAAA | 1.13 ± 0.13

Row | Sequence | switch fluorescence ratio
126 | ATTTGGGTGG | 0.987 ± 0.041
127 | ATTAACTAAA | 1.02 ± 0.017
128 | TATATGGGAT | 1.006 ± 0.0035
129 | GACCCTAGAT | 1.008 ± 0.0036
130 | TTAGGGGTCT | 1.03 ± 0.019
131 | TAAGGCAAGG | 1.03 ± 0.021
132 | CTATGATTTG | 0.9976 ± 0.0042
133 | TTGTTCTCGC | 1.02 ± 0.048
134 | GAGTGATTTA | 1.01 ± 0.035
135 | ACGTAGGGTT | 1.08 ± 0.012
136 | ATTTACATCA | 1.02 ± 0.013
137 | CCTTAGTTTT | 0.983 ± 0.022
138 | CCCGTATACA | 1.206 ± 0.0072
139 | TTACGATGGT | 1.003 ± 0.0032
140 | AAGCTGAGAA | 1.016 ± 0.0071
141 | TCGGAAGGGT | 0.9933 ± 0.0075
142 | TATATCAGTC | 1.02 ± 0.058
143 | TTCGATGGGG | 0.993 ± 0.048
144 | CCTATTGGGT | 1.02 ± 0.013
145 | CTCAGGGCGT | 0.97546 ± 0.00044
146 | AGAACGTTCT | 0.9851 ± 0.0059
147 | CGGCCTTAGA | 0.985 ± 0.029
148 | ACTAAACTTG | 1.014 ± 0.0022
149 | GGGAAGATTC | 1.01 ± 0.04
150 | AATCTTCTGG | 0.98 ± 0.025

Row | Sequence | switch fluorescence ratio
151 | AGGGCACGGT | 0.983 ± 0.036
152 | TCAGAAAGGG | 1.021 ± 0.0059
153 | TTCCAAACGG | 0.989 ± 0.014
154 | CTACTTTAGA | 0.993 ± 0.036
155 | TTTATGTCTA | 1.02 ± 0.024
156 | TCAAAAAATT | 1.02 ± 0.037
157 | CAAGGGGTGG | 0.996 ± 0.019
158 | AGTGACGTAC | 1.77 ± 0.075
159 | CGTTATTGGC | 1.02 ± 0.034
160 | GGACGGGATT | 1.02 ± 0.068
161 | GTGTGCCGCA | 0.977 ± 0.031
162 | GGTTTCGCTT | 1.03 ± 0.046
163 | ATGACGCGGG | 0.959 ± 0.023
164 | AAGCCTTAAA | 1.06 ± 0.011
165 | TCGGAGATCG | 0.9443 ± 0.001
166 | TTCTGTTCGC | 1.03 ± 0.025
167 | ATTTCCCTGT | 1.01 ± 0.044
168 | TCAATGTGGT | 1.016 ± 0.008
169 | TAAAGGGAGC | 1.12 ± 0.19
170 | TGACGGGAAG | 0.9862 ± 0.0012
171 | GAGGCATCTC | 1.02 ± 0.025
172 | AGGATCTTGT | 0.9943 ± 0.0016
173 | TAGAGTCGTG | 0.981 ± 0.027
174 | GGGAGGCCGG | 1 ± 0.036
175 | AAAGGGGATC | 0.998 ± 0.017

Row | Sequence | switch fluorescence ratio
176 | CCAGAGGGTT | 1.03 ± 0.031
177 | AAAACAGGAT | 0.9954 ± 0.0095
178 | CTAGCTATGT | 1 ± 0.067
179 | AAGGAGACTA | 1.02 ± 0.05
180 | GGGCGTACGG | 1.06 ± 0.045
181 | CAATCTTTAA | 1.02 ± 0.034
182 | ATTGTCTGAG | 1.01 ± 0.011
183 | TATTTATCTT | 0.989 ± 0.021
184 | TTTGCGACTG | 1.03 ± 0.015
185 | AGAATTCAAC | 1.003 ± 0.004
186 | TGGGGGAGCT | 1.05 ± 0.11
187 | AGCTTCAAAT | 1 ± 0.017
188 | ACTTAAGGTC | 1.001 ± 0.0035
189 | TCCCGGGTTA | 1.01 ± 0.013
190 | TTAAAGATTT | 1.07 ± 0.098
191 | GTTCAAGGAA | 0.9937 ± 0.0036
192 | GGATCAGAAG | 1.004 ± 0.0056
193 | TGTTGAAAAG | 0.979 ± 0.01
194 | ATGAAGGTCT | 0.968 ± 0.02
195 | GGAAGCGCTC | 1 ± 0.02
196 | GTGAGCTTGT | 1.02 ± 0.013
197 | CGGTAAATGT | 1.05 ± 0.071
198 | CGTTGGAAGG | 0.985 ± 0.021
199 | TAAAGGGTTT | 0.982 ± 0.021
200 | TAAAAATCGT | 0.997 ± 0.021
